Here are results for eight substances from patent US20250320281A1.

Some results are limits rather than exact numbers.

Assay in all cases: cell-based or functional assay
For experiment [1], the target named is HIV-1 92RW020 envelope glycoprotein (Env) on pseudovirus (HIV-1).
The target in experiment [2] is HIV-1 CMU02 envelope glycoprotein (Env) on pseudovirus (HIV-1).
Experiment [3] concerns the target HIV-1 Env of isolate 92UG024 (clade D pseudovirus) (HIV-1).
The target of experiment [4] is HIV-1 Env of isolate 93TH305, clade B, on pseudovirus (HIV-1).
The target in experiment [5] is HIV-1 Env of isolate MGRM-D-016 (clade D pseudovirus) (HIV-1).
Experiment [6] concerns the target HIV-1 Env of isolate QH0692.42 (Acute), clade B, on pseudovirus (HIV-1).
The target in experiment [7] is HIV-1 Env of isolate VLGCA1 (clade A pseudovirus) (HIV-1).
Experiment [8] has as its target HIV-1 Env of pseudovirus MGRM-AE-007 (clade CRF01_AE) (HIV-1).
Experiment [9] has as its target HIV-1 Env of pseudovirus MGRM-AG-001 (clade CRF_AG) (HIV-1).
The target in experiment [10] is HIV-1 Env of pseudovirus MGRM-AG-008 (clade CRF_AG) (HIV-1).
The target in experiment [11] is HIV-1 Env of pseudovirus MGRM-AG-009 (clade CRF_AG) (HIV-1).
The target of experiment [12] is HIV-1 Env of pseudovirus MGRM-Chronic-B-010 (HIV-1).
The target of experiment [13] is HIV-1 Env of pseudovirus MGRM-Chronic-B-011 (HIV-1).
The target of experiment [14] is HIV-1 Env of pseudovirus MGRM-F1-018 (HIV-1).
Experiment [15] deals with HIV-1 IAVI-C18 envelope glycoprotein (Env) on pseudovirus (HIV-1).
The target in experiment [16] is HIV-1 IAVI-C3 envelope glycoprotein (Env) on pseudovirus (HIV-1).
For experiment [17], the target named is HIV-1 envelope glycoprotein (Env) of isolate 94KE105, listed under clade A (HIV-1).
Experiment [18] has as its target HIV-1 envelope glycoprotein (Env) of isolate MGRM-A-001, clade A (HIV-1).
For experiment [19], the target named is HIV-1 envelope glycoprotein (Env) of isolate MGRM-A-004, clade A (HIV-1).
For experiment [20], the target named is envelope protein of aMLV pseudovirus (negative control).
The target in experiment [21] is HIV-1 92RW020 Env (pseudovirus, clade A) (HIV-1).
For experiment [22], the target named is HIV-1 APV13 Env (pseudovirus, clade B) (HIV-1).
In experiment [23] the target is HIV-1 Env of isolate 92UG024 (HIV-1).
The target in experiment [24] is HIV-1 Env of isolate 92UG046 (HIV-1).
The target of experiment [25] is HIV-1 Env of isolate 97ZA012 (subtype C) (HIV-1).
The target in experiment [26] is HIV-1 Env of isolate APV-17 (HIV-1).
The target in experiment [27] is HIV-1 Env of isolate CMU02 (subtype AE) (HIV-1).
For experiment [28], the target named is HIV-1 Env of isolate MG RM-D-002 (HIV-1).
For experiment [29], the target named is HIV-1 Env of isolate MG RM-D-011 (HIV-1).
Experiment [30] deals with HIV-1 Env of isolate MG RM-D-019 (HIV-1).
Experiment [31] has as its target HIV-1 Env of isolate MGRM-A-003 (HIV-1).
The target in experiment [32] is HIV-1 Env of isolate MGRM-A-013 (subtype A) (HIV-1).
Experiment [33] has as its target HIV-1 Env of isolate MGRM-AE-004 (subtype AE) (HIV-1).
For experiment [34], the target named is HIV-1 Env of isolate MGRM-Chronic-B-001 (subtype B) (HIV-1).
Experiment [35] concerns the target HIV-1 Env of isolate MGRM-Chronic-B-008 (subtype B) (HIV-1).
Experiment [36] addresses HIV-1 Env of isolate MGRM-Chronic-B-017 (subtype B) (HIV-1).
Experiment [37] concerns the target HIV-1 envelope glycoprotein (Env) of isolate MGRM-C-027 (HIV-1).

Chain of 1443_C16 (PG16) (TCN-116) (antibody) (VH): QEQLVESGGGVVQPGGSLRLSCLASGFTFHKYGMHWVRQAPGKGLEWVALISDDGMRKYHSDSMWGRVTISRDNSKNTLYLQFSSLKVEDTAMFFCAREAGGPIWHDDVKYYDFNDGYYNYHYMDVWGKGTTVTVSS
Chain of 1443_C16 (PG16) (TCN-116) (antibody) (VL): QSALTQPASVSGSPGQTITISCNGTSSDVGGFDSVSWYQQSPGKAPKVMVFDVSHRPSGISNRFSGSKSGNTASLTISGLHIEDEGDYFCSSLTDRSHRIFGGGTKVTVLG
Chain of 5329_C19 (PGT-136) (antibody) (VH): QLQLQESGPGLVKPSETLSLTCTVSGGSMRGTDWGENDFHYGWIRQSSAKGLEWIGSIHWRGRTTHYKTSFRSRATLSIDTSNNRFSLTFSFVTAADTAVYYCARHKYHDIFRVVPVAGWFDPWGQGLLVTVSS
Chain of 5329_C19 (PGT-136) (antibody) (VL): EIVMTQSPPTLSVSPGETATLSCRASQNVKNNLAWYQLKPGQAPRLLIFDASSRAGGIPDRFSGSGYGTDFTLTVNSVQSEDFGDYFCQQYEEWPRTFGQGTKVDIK
Chain of 5345_I01 (PGT-137) (antibody) (VH): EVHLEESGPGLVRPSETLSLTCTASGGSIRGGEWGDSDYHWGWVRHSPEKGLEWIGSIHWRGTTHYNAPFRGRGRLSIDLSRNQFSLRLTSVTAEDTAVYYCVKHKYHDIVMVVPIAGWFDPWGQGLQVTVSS
Chain of 5345_I01 (PGT-137) (antibody) (VL): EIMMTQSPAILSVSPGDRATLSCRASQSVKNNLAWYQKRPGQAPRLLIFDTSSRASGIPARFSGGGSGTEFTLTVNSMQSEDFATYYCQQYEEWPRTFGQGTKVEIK

In the case of 1443_C16 (PG16) (TCN-116) (antibody), the IC50, pseudovirus neutralization in [1] was 0.004 µg/mL; in experiment [2] it was > 50 µg/mL; in experiment [15], 0.0067 µg/mL; in [16] it was 14.8 µg/mL. The IC50 (µg/ml), pseudovirus neutralization in experiment [3] was 24 µg/mL; in experiment [4], 19.3 µg/mL; in experiment [5] it was 0.02 µg/mL; in experiment [6], > 50 µg/mL; in experiment [7] it was 0.18 µg/mL; in experiment [12], 0.01 µg/mL. Besides, the IC50 (µg/ml), pseudovirus neutralization is > 50 µg/mL in [13]; 0.01 µg/mL in experiment [14]; 6.13 µg/mL in [17]; > 50 µg/mL in experiment [18]; 0.04 µg/mL in [19]; > 50 µg/mL in experiment [20]. The IC50 in experiment [8] was 0.04 µg/mL; in experiment [9], 0.03 µg/mL; in experiment [10], 0.002 µg/mL; in experiment [11], > 50 µg/mL.

On to 2G12 (antibody), for which the IC50, pseudovirus neutralization in [1] was 0.56 µg/mL; in experiment [2] it was > 50 µg/mL; in [15], > 50 µg/mL; in [16] it was > 50 µg/mL. For the same substance, the IC50 (µg/ml), pseudovirus neutralization was 0.42 µg/mL in experiment [3]; 0.55 µg/mL in experiment [4]; > 50 µg/mL in experiment [5]; 4.39 µg/mL in experiment [6]; > 50 µg/mL in [7]; 1.5 µg/mL in experiment [12]. Besides, the IC50 (µg/ml), pseudovirus neutralization in experiment [13] is > 50 µg/mL; in [14] it was > 50 µg/mL; in [17], 7.22 µg/mL; in [18], > 50 µg/mL; in experiment [19] it was > 50 µg/mL; in experiment [20], > 50 µg/mL. For the same substance, the IC50 in [8] is > 50 µg/mL; in experiment [9], 0.69 µg/mL; in experiment [10] it was > 50 µg/mL; in [11], > 50 µg/mL.

Regarding 4E10 (antibody), the IC50, pseudovirus neutralization was 3.38 µg/mL in experiment [1], 0.59 µg/mL in experiment [2], > 50 µg/mL in [15] and 5 µg/mL in [16]. Further, the IC50 (µg/ml), pseudovirus neutralization in experiment [3] was determined as 2.17 µg/mL; in experiment [4], 12.3 µg/mL; in [5], 15.4 µg/mL; in experiment [6] it was 12.7 µg/mL; in experiment [7] it was 4.58 µg/mL; in experiment [12], 1.69 µg/mL. The IC50 (µg/ml), pseudovirus neutralization in [13] was 1.07 µg/mL; in experiment [14], 3.6 µg/mL; in [17], 7.63 µg/mL; in [18] it was 15.1 µg/mL; in [19], 3.14 µg/mL; in experiment [20], > 50 µg/mL. Besides, the IC50 in experiment [8] was 0.45 µg/mL; in experiment [9] it was 1.12 µg/mL; in experiment [10] it was 1.48 µg/mL; in experiment [11] it was 31.4 µg/mL.

Take 5343_B08 (PGT-135) (antibody): the IC50 neutralization in experiment [21] was 0.157 µg/mL; in experiment [22], 0.545 µg/mL; in [25] it was > 50 µg/mL; in experiment [34] it was > 50 µg/mL; in experiment [35] it was > 50 µg/mL; in experiment [36], > 50 µg/mL. Besides, the IC50 (µg/mL), pseudovirus neutralization in experiment [23] was 0.01 µg/mL; in experiment [24], > 50 µg/mL; in experiment [27] it was > 50 µg/mL; in experiment [28], > 50 µg/mL; in experiment [29], 23.5 µg/mL; in [30] it was > 50 µg/mL. Also, the IC50 (µg/mL), pseudovirus neutralization in experiment [32], in experiment [33] and in experiment [37] was > 50 µg/mL each time. In experiment [26], the neutralization IC50 is > 50 µg/mL. In experiment [31], the IC50 is > 50 µg/mL.

Turning to 5147_N06 (PGT-130) (antibody), the IC50 neutralization in experiment [21] is 0.014 µg/mL; in experiment [22], 0.0345 µg/mL; in [25], 1.32 µg/mL; in [34], > 50 µg/mL; in [35] it was 5.18 µg/mL; in [36], > 50 µg/mL. The IC50 (µg/mL), pseudovirus neutralization is > 50 µg/mL in experiment [23]; > 50 µg/mL in experiment [24]; > 50 µg/mL in experiment [27]; 0.869 µg/mL in [28]; 0.019 µg/mL in experiment [29]; > 50 µg/mL in experiment [30]. In addition, the IC50 (µg/mL), pseudovirus neutralization in experiment [32] was > 50 µg/mL; in experiment [33], 2.43 µg/mL; in [37], 0.008 µg/mL. The same substance registered a neutralization IC50 in [26] of 10.7 µg/mL. Further, the IC50 in experiment [31] is > 50 µg/mL.

As for 5345_I01 (PGT-137) (antibody), the IC50 (µg/mL), pseudovirus neutralization is 0.106 µg/mL in experiment [23]; > 50 µg/mL in experiment [24]; > 50 µg/mL in experiment [27]; > 50 µg/mL in experiment [28]; 6.3 µg/mL in [29]; > 50 µg/mL in experiment [30]. The IC50 (µg/mL), pseudovirus neutralization was 49.2 µg/mL in experiment [32], > 50 µg/mL in [33] and > 50 µg/mL in [37]. Besides, the IC50 neutralization in experiment [25], in experiment [34], in experiment [35] and in [36] was > 50 µg/mL in each case. In addition, in experiment [26], the neutralization IC50 is > 50 µg/mL. In [31], the IC50 was > 50 µg/mL.

In the case of 5114_A19 (PGT-128) (antibody), the IC50 (µg/mL), pseudovirus neutralization is > 50 µg/mL in experiment [23]; > 50 µg/mL in experiment [24]; > 50 µg/mL in experiment [27]; 0.011 µg/mL in experiment [28]; 0.007 µg/mL in experiment [29]; > 50 µg/mL in [30]. Further, the IC50 (µg/mL), pseudovirus neutralization in experiment [32] was 0.008 µg/mL; in [33], > 50 µg/mL; in [37] it was 0.081 µg/mL. Moreover, the IC50 neutralization in [25] was 0.019 µg/mL; in experiment [34], > 50 µg/mL; in experiment [35], 0.143 µg/mL; in [36], > 50 µg/mL. Also, the neutralization IC50 in experiment [26] came out at 0.016 µg/mL. Further, the 50% inhibitory concentration (IC50) in [31] is > 50 µg/mL.

For 5329_C19 (PGT-136) (antibody), the IC50 neutralization in [21] was 0.738 µg/mL; in experiment [22], > 10 µg/mL; in experiment [25] it was > 50 µg/mL; in experiment [34], > 50 µg/mL; in experiment [35], > 50 µg/mL; in [36] it was > 50 µg/mL. Moreover, the IC50 (µg/mL), pseudovirus neutralization in experiment [23] was 0.052 µg/mL; in experiment [24] it was > 50 µg/mL; in experiment [27] it was > 50 µg/mL; in experiment [28], > 50 µg/mL; in experiment [29], > 50 µg/mL; in [30], > 50 µg/mL. Moreover, the IC50 (µg/mL), pseudovirus neutralization in [32], in [33] and in experiment [37] was > 50 µg/mL throughout. Besides, in [26], the neutralization IC50 was > 50 µg/mL. The IC50 in experiment [31] was > 50 µg/mL.
